According to the nanobody polyreactivity screen of Harvey et al. (2022):

Experiment: yeast display, Sf9 membrane polyspecificity reagent, FACS + sequencing; frameworks hold sequencing errors
Method in brief: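 A synthetic nanobody library was expressed on Saccharomyces cerevisiae BJ5465 by galactose induction for 36–48 hours. The library was stained for 1 hour at 4 °C with 10% biotinylated, detergent-solubilized Sf9 membrane reagent and enriched with streptavidin microbeads before FACS. Low and high (top ~1%) gates were set on anti-HA fluorescence for expression and streptavidin fluorescence for reagent binding, and each polyreactivity label reflects the gate of origin.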

Sequence | polyreactivity (PSR sort gate)
QVQLVESGGGLVQAGGSLRLSCAASGRTFYGYGMGWYRQAAGKEREFVAAISYSGGSTYYADSVKGRFTISRDNAKNTVYLQMNSLKPEDTAVYYCAARNRGSGFYYWGQGTQVTVSS | high polyreactivity
QVQLVESGGGLVQAGGRLRLSCAASGYTFAGNAMGGYRPAPGKERELVAVITYSGGSTYYADSVKGRFTISRDNAKNTVYLQMNSLKPEDTAVYYCAADWQYSPRMDYWGQGTQVTVSS | low polyreactivity
QVQLVESGGGLVQAGGSLRLSCASSGITFVRYAMAWYRPAPGKERELVAVISRGGITNYADSVKGRFTISRDNAKNTVYFQMNSLKPEDTGVYYCNREKRIRSSGGLYYWGQGTQVSVSS | high polyreactivity
QVQLVESGGGLVQAGGSLRLSCPASGRIFSFYALGGYRQAPGKERELVAAITYTDGSTYADSVKGRFTISRDNAKNTVYLQMNSLKPEDTAVYYCNAYRGWLLSREMDYWGQGTQVTVSS | low polyreactivity
QVQLVESGGGLVQAGGSLRLSCAASGSIFRWYAMGWYRKAPGKERELVARITVSGGSTYYADSVKGRFTISRDNAKNTVYLEMNSLKPEDTAVYYCNARAHYTPDGGGDYWGQGTQVTVSS | high polyreactivity
QVQLVESGGGLVQAGGSLRLSCAASGSIFTGYAMGWYRQAPGKERELVAAISRSGGRTYYADSVKGRFTISRDNAKYTVYLQMNRLKPEDTAVYYCNSVVSPWNQGYYYWGQGTQVTVSS | high polyreactivity
QVQLVESGGGLVQAGGSLRLSCAASGSTFRYYAMGWYRQAPGKERELVAAINYGGGRTYYADSVKGRFTISRDNAKNTVYLQMNSLKPEDTAVYYCATGYYYYRFYTYGYWGQGTQVTVSS | high polyreactivity
QVQLVESGGGLVQAGGSLRLSCAASGSIFYINAMGWYRQAPGKERELGAAITSDGSTYYADSVKGRFTISRDKAKHTVYLQMNSLKPEDTAVYYCAADLTSDQFLYYWYWFYSWGQGTQVTVSS | low polyreactivity
QVQLVESGGGLVQAGGSLRLSCAASGFIFADYAMGWYRQAPGKERELVAAITSSGTRTYYADSVKGRFTISRDNAKNTVYLQMNSLKPEDTAVYYCAVRGVYYYHCAFDYWGQGTQVTVSS | high polyreactivity
QVQLVESGGGLVQAGGSLRLSCAASGRTQRYYAMGWYRQAPRKERELVAAITKSGGSTYYADSVKGRITISRDNAKNTVYLQMYSLKPEDTAVYYFNKVTYSRAQYIGGDGYYWGQGTQVTVSS | high polyreactivity
QVQLVESGGGLVQAGGSLRLSCAASGSIFPVNAMGLYRQAPGKERELVAAITASGDSTYYADSVKGRFTISRDNAKNTVYLQMNSLKPEDTAVYYCNADGSYENREVYSFYYWGQGTQVTVSS | low polyreactivity
QVQIVESGGGLVQAGGSLRLSCAASGSTFTRYTMGWYRQAPGKERELVAAISGRGGSTYYADSVKGRFTISRDNAKNTVYLQMNSLKPEDTAVYYCNKVYWRRGSLEYWGQGTQVTVSS | high polyreactivity
QVQLVESGGGLVQAGGSLRLSCAASGGTFSVYGMGGYRQAPGKERELVAAITLSGGRTYYADSVKGRFTISRDNATNTLSLQMNSLQPEDTAVYYCNTLPWSRTKRDYWGQGTQGTVSS | low polyreactivity
QVQLVESGGGLVQAGGSLRLSCAASGRTFGRNAMGWYRQAPGKERELVAAINGNGGRTSYADSVKGRFTISRDNAKNTVYLPMNSLKPEDTAVYYCNKYTPGWYRYYYWGQGTQVTVSS | high polyreactivity
QVQLVESGGGLVQAGGSLRLSCAASGRILGRKAMGWYRHAPGKEREYVAAISSGGNTYYADSVKGRFTISRDNAKNTVYLQMKSLKPEDTAVYYCNADPDTYVSTITHDSWGQGTQVTVSS | low polyreactivity
QVQLVESGGGLVQAGGSLRLSCAASGFTFEDNTMGWYRQAPGKERELVAAITWGGVSTYYADSVKGRFTISRDNAKNTVYLQMNSLKPEDTAVYYCAAEEQVVKAHGDYWGQGTQVTVSS | low polyreactivity
QVQLVESGGGLVQAGGSLRLSCAASGITFNGYVMGWYRQAPGKERELVAAITSGGSTNYADSVKGRFTISRDNAKNTVYLQMNSLKPEDTAVYYCAARYKAYWQLYDYWGQGTQVTVSS | high polyreactivity
QFQLVESGGGLVQAGGSLRLSCAASGSIFGGYAMGWYRQAPGKEREFVAAITRSGVSTYYADSVKGRFTISRDNEKNTVYLQMNSLKPEDTAVYYCAADQTAWRLRVYLRQYRYEYWGQGTQVTVSS | high polyreactivity
QVQLVESGGGLVQAGGSLRLSCAASGFTFYVNAMGWYRQAPGKEREFVAAISSSGASTRYADSVKGRFTISRDNAKNTVYLQMNSLKPEDTAVYYCAADAPAWILEAYGYWGQGTQVTVSS | low polyreactivity
QVQLVESGGGLVQAGGSLRLSCAASGFTLFGYAMGWYRQAPGKERELVAAISKDGGSTYYADTVKGRFTISRDNAKNTVYLQMNSLKPEDTAVYYCAARVKRPQSGYDRRYGYWGQGTQVTVSS | high polyreactivity
QVQLVESGGGLVQAGGSLRLSCAASGITFGRNTMGWYRQAPGKERELVAAITYRSGRTYYADSVKGRFTISRDTAKNTVYLQMNILKPEDTAVYYCNTVSPYYDYDYWGQGTQVTVSS | high polyreactivity
QVQLVASGGGLVHAGGSLRLSCAASGRIFTHNAMGWSRQAPGKEREMVAAITSGGRTTYADSVKGRFTISRDNAKNTVYFQMNSLKPEDTAVYYCNADTGLGSLDFDKRDYWGQGTQVTVSS | low polyreactivity

Sequence | polyreactivity (PSR sort gate)
PVQLVESGGGLVQAGGSLPLSCAASGRTFPFNAMRWYRQAPGKERELVATINYRGGSTYYADSVKGRFTISRDNAKNTVYLQMNSLKPEDTAVYYCAAGKIGRYHYDYWGQGTQVTVSS | high polyreactivity
QVQLVESGGGLVQAGGSLRLSCAASGFIFSYYAMGWYRQAPGKERELVAAISISGGSTYYADSVKGRFTISRDNAKTTVYLQMNSLKPEDTAVYYCNKAPRYPYGGYDYWGQGTQVTVSS | low polyreactivity
QVQRVESGGGLVQAGGILRLSCAASGSTFKVNVIGWYRHAPRTERDLVSAINQSGGGKYYADSVKGRFTISRDNAKNTVYLQMNSLKPEDTAVYYCAAKIFVLRYVLSQEQRRYNYWGQGTQLTVSS | low polyreactivity
QVQLVESGGGLVQAGGSLRLSCAASGFTFVRYVMGWYRQAPGKERELVAAISRSGGSTHYADSVKGRFTISRDNAKYTVYLQMNSLKPEDTAVYYCAAASPRWPGQGDYWGEGTQVTVSS | high polyreactivity
QVQLVESGVVLVQAGGSLRLSCAASGSTFVRYAMGWYRQAPGKERELVAANSRSGGRTYYADSVKGRFTISRDNAKHTVYLQMNSLKPEDTAVYYCYPYYIASTFDYWGQGTQVTVSS | high polyreactivity
QVQLVESGGGLVQAGGSLRLSCAASGSTFANYAMGWYRQAPGKERELVAAISRGGNTYYADSVKVRFTISRDNAKNTVYLQMNSLKPEDTAVYYCAKYTYYSRPGDSDSDYWGQGTQVTVSS | high polyreactivity
QVQLVESGGGLVQAGGSLRLSCAASGSIFFYYAMGWYRQATGKERELVAAISIAGSTNYADSVKGRFTISRDNAKNTVYLQMNSLKPEDTAVYYCAKEYRWGQSQLDYWGQGTQVTVSS | low polyreactivity
QVQLVESGGGLVQAGGSLRLSCAASGSIFYFNAMGWYRQAPGKERELVATIRSGDGRTYYADSVKGRFTISRDNAKNTVYLQMNSLKPEDTAVYYCNASRVVYRQAYLYGYDYWGQGTQVTVSS | low polyreactivity
QVQLVESGGGLVQAGGSLRLSCAASGFTFNYYAMGWYRQATGKERELVAAIDSGGNTYYADSVKGRFTISRDNAKNNVYLLLNSLKPEDTAVYYCDAYSDYQYDYWGQGTQVTVSS | low polyreactivity
QVQLQESGGGLVQAGGSLLSCAASGTISWDDEMGWYLQAPGNERELVAGIAGGGNTNYADSVKGRFTISRDNAKNTVYLQMNSLDTAVYYCAVVGFGRGTHIYWGQGTQVTVSS | high polyreactivity
QVQLVESGGGLVQPGGSLRLSCAASGRILYYHAMAWYRQAPGKERELVARISSGGSTNYADSVKGRFTISRDNAKNTVYLQMNSLKPEDTAVSYCAVAKGGLAWGVGRGGRYDYWGQGTQVTVSS | low polyreactivity
QVQLEESAGRLVQAGGSLRLSCAASGYTFGYYAMGWYRQAPGKERQLVAAISWRGARTNYADSVKGRFTISRDNAKNTVYLQMNSLKPEDTAVYYCAAGYYYGYPPRDYWGQGTQVTVSS | high polyreactivity
QVQLVESGGGLVQAGGSLRLSCAASGSIFYQYAMGWYRQAPGKERELVAAISRSGGSTYYADSVKGRFTISRDNPKNTVYLQMNSLKPEDTAGYYCAARAVRAAYDYWGQGSQVTVSS | low polyreactivity
QVQLVESGGGLVQAGGSLRLSCAASGRIFRVYAMGWYRQAPGKERELVAAISGRGGSTTYADSVKGRFTISRDNAKNTVYLLMNSLKPEDTAVYYCAAGYRVDYWGQGTQVTVSS | low polyreactivity
QVQLVESGGGLVQAGGSLRLSCAASGSISYYNAMGWYRQAPGKERELVATITDSGGSTYYADSVKGRFTISRDNAKNTVYLQMNSLKPEDTAVYYCAVDYSEWYSIYDYWGQGTQVTVSS | low polyreactivity
QVQLVESGGGLVQAGGSLRLSCAASGRTFVPYAMGWYRQAPGKERELVAAITWSGGRTRYADSVKGRFTISRDNAKNTVFLQMNSLKPEDTAVYYCARYYWLYSSSYDYWGQGTQVTVSS | high polyreactivity
QVQLVESGGGLVQAGGSLRLSCAASGRIFPGYAMGWYRQAPGKERELVAAISERGGSTYYADSVKGRFTISRDNAKNTVYLQMNSLKPEDTAVYYCAAIWRGGYNYWGQGTQVTVSS | low polyreactivity
QVQLVESVGGLVQAGGSLRLSCAASGRTFLRYAMGWYRQAPGKERELVAAISWSGGRTYYADSVKGRFTISRDNAKNTVYLQMNSLKPEDTAVYYCNKVVLYGAHYYYWGQGTQVTVSS | high polyreactivity
QVQLVESGGGLVQAGGSLRLSCAASGSTSVQYAMGWYRQAPVKERELVAAIDRSGGSTSYADSVKGRFTISRDNANNTVYLQMNSLKPEDTAVYYCNADPVRSTYSYDYWGQGTQVTVSS | low polyreactivity
QVQLEESGGGLVQAGGSLRLSCAASGSTFGYYTMGWYRQAPGKERELVAAISWSGGSTYYADSVKGRFTISRDNAKNTVYLQMNSLKPEDTAVYYCAALGYTYKYYSYYWGQGTQVTVSS | high polyreactivity
QVQLVESGGGLVQAGGSLRLSGAASGSIFPGYAMGWYRQPPGKERELVATITWSGGSTYYADSVKGRFTISRDNAKNTVYLQMNSLKPEDSAVYYCAAERSWYTGFARDYDYWGQGTQVTVSS | low polyreactivity
